# T1: recombinant hMCAM-His (human, UniProt P43121 24-559)
# T1 construct: not shown: His tag
# T1 chain: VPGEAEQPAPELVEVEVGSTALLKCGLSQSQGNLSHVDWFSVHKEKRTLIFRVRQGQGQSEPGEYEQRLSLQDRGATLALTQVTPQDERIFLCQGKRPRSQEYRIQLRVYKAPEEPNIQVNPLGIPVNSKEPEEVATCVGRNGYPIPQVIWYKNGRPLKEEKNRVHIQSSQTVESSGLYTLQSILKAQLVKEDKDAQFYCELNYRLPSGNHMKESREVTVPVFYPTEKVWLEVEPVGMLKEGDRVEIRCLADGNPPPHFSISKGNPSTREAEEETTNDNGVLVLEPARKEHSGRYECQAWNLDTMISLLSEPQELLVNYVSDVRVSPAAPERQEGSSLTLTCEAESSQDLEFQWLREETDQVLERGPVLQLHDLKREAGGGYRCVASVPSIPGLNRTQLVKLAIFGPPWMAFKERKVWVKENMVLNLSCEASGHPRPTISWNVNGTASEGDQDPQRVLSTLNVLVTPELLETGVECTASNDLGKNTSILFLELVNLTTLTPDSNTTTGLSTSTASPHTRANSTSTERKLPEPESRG
# T2: human MCAM (melanoma cell adhesion molecule) expressed on transfected CHO cells (human, UniProt P43121 24-646)
# T2 construct: also called hMCAM; CD146
# T2 chain: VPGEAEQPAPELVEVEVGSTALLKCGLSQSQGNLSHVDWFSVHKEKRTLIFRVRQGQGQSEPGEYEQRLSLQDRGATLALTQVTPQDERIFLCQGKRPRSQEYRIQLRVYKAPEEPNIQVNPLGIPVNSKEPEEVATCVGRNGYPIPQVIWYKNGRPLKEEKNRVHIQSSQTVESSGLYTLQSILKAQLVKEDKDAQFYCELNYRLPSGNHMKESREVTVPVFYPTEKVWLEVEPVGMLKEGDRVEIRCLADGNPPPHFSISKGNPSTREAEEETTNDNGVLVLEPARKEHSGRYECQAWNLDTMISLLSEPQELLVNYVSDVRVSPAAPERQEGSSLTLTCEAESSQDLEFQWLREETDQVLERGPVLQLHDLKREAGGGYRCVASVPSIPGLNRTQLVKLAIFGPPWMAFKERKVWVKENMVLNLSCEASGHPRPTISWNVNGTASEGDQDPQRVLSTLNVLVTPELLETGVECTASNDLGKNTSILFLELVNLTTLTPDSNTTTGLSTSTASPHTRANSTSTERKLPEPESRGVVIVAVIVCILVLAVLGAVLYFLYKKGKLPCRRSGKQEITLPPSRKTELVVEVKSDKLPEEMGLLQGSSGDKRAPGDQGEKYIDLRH
# Assays:
# recombinant hMCAM-His [1] = target: T1, recombinant hMCAM-His; assay: ForteBio Octet Red, hMCAM-His analyte; Expt. #2; vs rodent 1749
# Description: The affinities were measured using the ForteBio Octet Red. Anti-human Fc sensors were used to capture the humanized antibodies, and several concentrations of hMCAMHis analyte were used to determine the affinity using a 1:1 fitting model.
# [2] = target: T2, human MCAM (melanoma cell adhesion …); assay: laminin/FACS on hMCAM CHO cells, competitor laminin 411; Expt#1; vs rodent 1749
# Description: Following incubation for 30-45 minutes, the cells were washed and anti-laminin conjugated to AF650 (NovusBio) was added to detect the bound laminin. The cells were run on a flow cytometer to measure the laminin binding signal.
# recombinant hMCAM-His [3] = target: T1, recombinant hMCAM-His; assay: competitive ELISA on hMCAM-His, competitor biotinylated rodent or chimeric 1749; vs rodent 1749
# recombinant hMCAM-His [4] = target: T1, recombinant hMCAM-His; assay: competitive ELISA on hMCAM-His, competitor biotinylated rodent or chimeric 1749; Expt. #2; vs rodent 1749
# Description: ELISA plates were coated with recombinant hMCAM-His, and blocked with casein buffer to prevent non-specific binding. Biotinylated rodent or chimeric antibody was added at a subsaturating concentration, in the presence or absence of 3× increasing concentrations of unlabeled competitor (humanized antibody, rodent, or chimeric). After washing to remove unbound antibody, streptavidin HRP was added to allow detection of the biotinylated antibody. The ELISA was developed with TMB substrate and the OD450 was measured. The IC50 of the unlabeled competitor was determined using the GraphPad Prism5 software.
# [5] = target: T2, human MCAM (melanoma cell adhesion …); assay: flow cytometry, human MCAM CHO cells preincubated with antibody, competitor recombinant human laminin 411 at 20 ug/ml
# Description: The 87 independent mouse fusion clones and 26 independent rat fusion clones described in Example 10 above as being capable of (i) binding to human MCAM, and (ii) blocking the interaction between human MCAM and the α-4 chain of laminin were further characterized as follows. First, IC50 quantitation for the ability of the monoclonal antibody to block the binding of human MCAM to the α-4 chain of laminin was determined as follows. CHO cells expressing human MCAM were incubated with an anti-human MCAM antibody (at various concentrations) for 30 minutes at 4 degrees Celsius. […] Unbound laminin was then washed away, and the laminin bound to the surface of the cells was detected with fluorescently labeled anti-laminin antibodies. After washing, the amount of laminin bound to the surface was detected by flow cytometry, and IC50s were calculated based on the mean fluorescent intensity.
# These six anti-MCAM monoclonal antibody clones are herein referred to as (i) the mouse anti-human MCAM monoclonal clones 1174.1.3, 1414.1.2, 1415.1.1, and 1749.1.3, and (ii) the rat anti-human MCAM monoclonal antibody clones 2120.4.19 and 2107.4.10. […] As such, each of these specific monoclonal antibodies was very capable of binding to human MCAM and inhibiting the interaction of cell-expressed human MCAM with its α-4 laminin binding ligand.
binder,measurement,setting,value
"mouse anti-human MCAM monoclonal antibody clone 1749.1.3 (antibody, V domains shown, mouse hybridoma antibody; also called rodent 1749; murine 1749.1.3 anti-MCAM antibody) VH: DVKLVESGGDLVKPGGSLKLSCAASGFTFSSYIMSWVRQTPEKRLEWVATISSGGSSTYYPDSVKGRFTISRDNAKNTLYLQMSSLKSEDTAMYYCTRDDDYDVKVFAYWGQGTLVTVSA VL: DIVMSQSPSSLAVSAGEKVTMNCKSSRSLLNSRIRKNYLAWYQQKPGQSPKLLIYWASTRESGVPDRFTGSGSGTDFTLTISSVQAEDLAVYYCKQSYNLLTFGAGTKLELK",fold over rodent (Forte affinity),recombinant hMCAM-His [1],1 fold
same,"fold over rodent (blocking, laminin/FACS)",[2],1 fold
same,fold over rodent (competitive ELISA),recombinant hMCAM-His [3],1 fold
same,fold over rodent (competitive ELISA),recombinant hMCAM-His [4],1 fold
same,IC50,[5],0.545 µg/mL

# Source: US20150239980A1 (NEOTOPE BOSCIENCES, published 2015)
